{"source": "paper PMC9236607", "about": "“TUBA1A tubulinopathy mutants disrupt neuron morphogenesis and override XMAP215/Stu2 regulation of microtubule dynamics” (eLife, 2022)", "binders": {"B1": {"name": "GST-TOG1/2 (the two TOG domains of Stu2 fused to a GST tag, Stu2 1-590) (domain or fragment, S. cerevisiae, UniProt P46675 1-590, looked up)", "chain": "MSGEEEVDYTTLPLEERLTYKLWKARLEAYKELNQLFRNSVGDISRDDNIQIYWRDPTLFAQYITDSNVVAQEQAIVALNSLIDAFASSSLKNAHNITLISTWTPLLVEKGLTSSRATTKTQSMSCILSLCGLDTSITQSVELVIPFFEKKLPKLIAAAANCVYELMAAFGLTNVNVQTFLPELLKHVPQLAGHGDRNVRSQTMNLIVEIYKVTGNNSDLLEEILFKKLKPIQVKDLHKLFAKVGDEPSSSKMLFEWEKRELEKKRSQEEEARKRKSILSNDEGEYQIDKDGDTLMGMETDMPPSKQQSGVQIDTFSMLPEETILDKLPKDFQERITSSKWKDRVEALEEFWDSVLSQTKKLKSTSQNYSNLLGIYGHIIQKDANIQAVALAAQSVELICDKLKTPGFSKDYVSLVFTPLLDRTKEKKPSVIEAIRKALLTICKYYDPLASSGRNEDMLKDILEHMKHKTPQIRMECTQLFNASMKEEKDGYSTLQRYLKDEVVPIVIQIVNDTQPAIRTIGFESFAILIKIFGMNTFVKTLEHLDNLKRKKIEETVKTLPNFSIASGSTHSTIETNKQTGPMENKFLLK", "notes": "Stu2 (yeast homologue of XMAP215), S. cerevisiae, residues 1-590 with the TOG1 and TOG2 domains, from pGEX-6P-1 Stu2 1-590 (Widlund et al., 2012); also called Stu2 TOG1/2 domains; Stu2 TOG1/TOG2 domains; source: E. coli BL21, purified (GSTrap HP, eluted with reduced glutathione); not shown: GST, N-terminal, kept"}}, "target": "T1, purified budding yeast tubulin heterodimer, Tub1-WT (internal 6X-His) with Tub2 (S. cerevisiae, UniProt P09733 1-447; P02557 1-457)", "T1 construct": "alpha-tubulin Tub1, S. cerevisiae, from pRS426-GAL-Tub1-internal 6X-His (Johnson et al., 2011); beta-tubulin Tub2, S. cerevisiae, untagged, from pRS424-GAL-Tub2 (Johnson et al., 2011); also called WT tubulin; WT yeast tubulin; source: S. cerevisiae JEL1 (protease deficient), overexpressed from GAL plasmids, purified (His60 Ni column, HiTrap Q)", "T1 sequence (P09733 whole entry, chain 1 of 2)": "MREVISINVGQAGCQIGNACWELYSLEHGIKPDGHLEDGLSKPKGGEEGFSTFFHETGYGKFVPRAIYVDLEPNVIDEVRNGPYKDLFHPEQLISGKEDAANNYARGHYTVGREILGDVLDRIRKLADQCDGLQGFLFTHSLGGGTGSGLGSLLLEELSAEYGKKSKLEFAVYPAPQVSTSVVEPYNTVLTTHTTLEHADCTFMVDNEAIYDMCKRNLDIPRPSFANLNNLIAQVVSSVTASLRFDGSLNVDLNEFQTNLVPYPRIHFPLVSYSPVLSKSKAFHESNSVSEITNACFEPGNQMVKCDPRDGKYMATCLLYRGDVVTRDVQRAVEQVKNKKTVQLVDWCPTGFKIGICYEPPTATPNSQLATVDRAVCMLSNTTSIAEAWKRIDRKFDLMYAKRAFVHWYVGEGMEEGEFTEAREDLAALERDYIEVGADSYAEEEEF", "T1 sequence (P02557 whole entry, chain 2 of 2)": "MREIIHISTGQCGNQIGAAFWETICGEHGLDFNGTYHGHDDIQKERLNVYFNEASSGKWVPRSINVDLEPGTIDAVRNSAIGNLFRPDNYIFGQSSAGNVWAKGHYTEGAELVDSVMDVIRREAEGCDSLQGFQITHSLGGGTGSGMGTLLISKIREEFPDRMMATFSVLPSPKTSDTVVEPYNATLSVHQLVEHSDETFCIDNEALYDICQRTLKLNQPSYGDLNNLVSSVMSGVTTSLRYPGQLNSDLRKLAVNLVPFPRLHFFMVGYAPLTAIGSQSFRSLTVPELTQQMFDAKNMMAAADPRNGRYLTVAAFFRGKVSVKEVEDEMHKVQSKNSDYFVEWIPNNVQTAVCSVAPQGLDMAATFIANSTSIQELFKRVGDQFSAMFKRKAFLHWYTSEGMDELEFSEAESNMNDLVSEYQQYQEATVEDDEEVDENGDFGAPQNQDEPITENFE", "test": "pull-down; 100 nM tubulin mixed with 9.8 nM to 5 µM GST-TOG1/2 at 4°C for 15 min, then glutathione magnetic agarose beads, 4°C, 1 hr; beads equilibrated in 125 mM Tris-HCl, 150 mM KCl, 1 mM DTT, 1 mM EDTA, pH 7.4; unbound tubulin left in the supernatant read by western blot for α- and β-tubulin", "conditions": "both partners purified"}
{"binder": "B1", "values": [{"measurement": "binding result", "result": "binds"}]}
